Experiments:
TB7.7 = target: T1, TB7.7 (Mycobacterium tuberculosis H37Rv, UniProt P9WJ11 P9WJ11:1-81); test: fluorescence of Cy3-aptamer bound to TB7.7 magnetic beads; 20 mM Tris, 50 mM NaCl, 5 mM KCl, 5 mM MgCl2, pH 8.0; conditions: tags: His6-tag, pET32a vector, expressed in E. coli BL21(DE3); label: Cy3
T1 sequence: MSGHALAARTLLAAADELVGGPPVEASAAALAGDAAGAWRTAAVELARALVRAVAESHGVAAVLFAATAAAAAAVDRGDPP
Protocol: 16 μg of TB7.7 was mixed with 10 μL of magnetic beads, and then incubated in 100 μL of a binding buffer (20 mM Tris, 50 mM NaCl, 5 mM KCl, 5 mM MgCl₂, pH 8.0) for 1 hour. To separate unbound TB7.7, washing was performed twice with a binding buffer. Subsequently, the resulting mixture was incubated together with various concentrations of a Cy3-labeled aptamer for an hour, and an unbound aptamer was removed by washing. The amount of Cy3-labeled ssDNA aptamer bound to the magnetic beads with TB7.7 immobilized thereon was measured by fluorescence measurement (1420 Victor Multilabel counter, PerkinElmer, USA) by separating only Cy3-labeled ssDNA bound to TB7.7.

CFP10 = CFP10 (Mycobacterium tuberculosis, UniProt P9WNK5 P9WNK5:2-100); test: impedance biosensor, 10 pM protein in PBS; aptamer taken as TG4
Source text: (§1) At this time, each protein was mixed at a concentration of 10 pM with PBS and used for detection.

ESAT6 = ESAT6 (Mycobacterium tuberculosis, UniProt P9WNK7 P9WNK7:2-95); test: as above
Source text: as §1

B1: TG6 (ssDNA)
DNA: CACCTAATACGACTCACTATAGCGGATCCGACACGAAGGATACTCAGTAGTACCCAGGTTGGTAGGGTAGCCTGGCTCGAACAAGCTTGC
Kd (TB7.7): 0.0343 µM

B2: TG5 (ssDNA)
DNA: CACCTAATACGACTCACTATAGCGGATCAGAATTTCTGTAATTAAGCGATAAATTGCTTAATAGGCACTCTCTGGCTCGAACAAGCTTGC
Kd (TB7.7): 0.106 µM

B3: TG4 (ssDNA)
DNA: CACCTAATACGACTCACTATAGCGGATCCGAAAGTTGTTAGTAGACTTAGGGGAGGGTTAAAGTGGGGTGGCTGGCTCGAACAAGCTTGC
Kd (TB7.7): 0.0375 µM

B4: TG4 immobilized on gold electrode (ssDNA)
DNA: CACCTAATACGACTCACTATAGCGGATCCGAAAGTTGTTAGTAGACTTAGGGGAGGGTTAAAGTGGGGTGGCTGGCTCGAACAAGCTTGC
binding result (CFP10): no binding | binding result (ESAT6): no binding

— patent US20200407722, “DNA APTAMER […] BINDING TO TB7.7, AND USE […]” (MD APTUS INC., published 2020)
